Assay [1] concerns the target CD20 endogenously expressed on Raji cells (UniProt P11836). Kind of assay: cell-based or functional assay.
For assay [2], the target named is human FcγRI (R&D Systems, 1257-FC) (human) (UniProt P12314). Kind of assay: SPR, Biacore T200; FcγR immobilised, 200 µg/ml injected. On the technique in general: In SPR one partner is held on a chip, and binding of the other changes the refractive index at the surface.
The target of assay [3] is human FcγRIIIa (R&D Systems, 4325-FC) (human) (UniProt P08637). The description is as above.
Assay [4] concerns the target human FcγRIIa (R&D Systems, 1330-CD) (human) (UniProt P12318). Description: SPR, Biacore T200; FcγR immobilised, 500 µg/ml injected.
Assay [5] concerns the target human FcγRIIb/c (R&D Systems, 1875-CD) (human) (UniProt P31994). Described as above.
Assay [6] concerns the target human FcγRI (R&D Systems, 1257-FC) (human) (UniProt P12314). Kind of assay: SPR, BIAcore 3000; FcγR immobilised, 100 µg/ml injected.
Assay [7] has as its target human FcγRIIa (R&D Systems, 1330-CD) (human) (UniProt P12318). Kind of assay: SPR, BIAcore 3000; FcγR immobilised, 500 µg/ml injected.
Assay [8] has as its target human FcγRIIb/c (R&D Systems, 1875-CD) (human) (UniProt P31994). The assay is described as above.
Assay [9] addresses mouse LAG-3 expressed on cells (mouse) (UniProt Q61790). Kind of assay: flow cytometry on HEK cells expressing murine LAG-3. (In general: A flow cytometer gives signals particle by particle.)
Assay [10] shares this target. Kind of assay: flow cytometry on HEK cells expressing mouse LAG-3.

Here are results for 5 substances from patent US20220185894A1.

pEC50: −log10 of the molar value.

One may read the pEC50 as −log10 of the EC50, conventionally taken in molar units.

Chain of mouse LAG-3 expressed on cells (mouse) (Q61790 24-521 limits assumed): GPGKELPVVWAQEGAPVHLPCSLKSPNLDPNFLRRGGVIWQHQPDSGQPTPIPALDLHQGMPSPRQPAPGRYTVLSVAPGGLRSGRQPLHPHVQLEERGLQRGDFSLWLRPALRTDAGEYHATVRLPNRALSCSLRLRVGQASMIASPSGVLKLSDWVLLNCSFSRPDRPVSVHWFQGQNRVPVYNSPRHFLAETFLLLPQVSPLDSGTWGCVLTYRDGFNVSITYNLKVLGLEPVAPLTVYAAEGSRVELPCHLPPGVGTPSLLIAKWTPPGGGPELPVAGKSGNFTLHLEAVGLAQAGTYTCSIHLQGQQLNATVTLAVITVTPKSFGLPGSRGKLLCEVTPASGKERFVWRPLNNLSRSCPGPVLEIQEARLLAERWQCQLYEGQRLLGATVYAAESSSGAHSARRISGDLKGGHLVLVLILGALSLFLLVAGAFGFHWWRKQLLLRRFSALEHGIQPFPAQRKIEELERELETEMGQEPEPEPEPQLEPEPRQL
Chain of human FcγRI (R&D Systems, 1257-FC) (human) (P12314 16-288 limits assumed): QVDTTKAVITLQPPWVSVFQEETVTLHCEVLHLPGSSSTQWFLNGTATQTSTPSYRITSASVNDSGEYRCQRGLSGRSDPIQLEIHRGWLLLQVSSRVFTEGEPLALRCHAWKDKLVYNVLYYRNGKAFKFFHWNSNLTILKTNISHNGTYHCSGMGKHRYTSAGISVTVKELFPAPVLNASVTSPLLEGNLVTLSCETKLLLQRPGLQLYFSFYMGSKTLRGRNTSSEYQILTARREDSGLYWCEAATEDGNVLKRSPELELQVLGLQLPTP
Chain of human FcγRIIb/c (R&D Systems, 1875-CD) (human) (P31994 46-217 limits assumed): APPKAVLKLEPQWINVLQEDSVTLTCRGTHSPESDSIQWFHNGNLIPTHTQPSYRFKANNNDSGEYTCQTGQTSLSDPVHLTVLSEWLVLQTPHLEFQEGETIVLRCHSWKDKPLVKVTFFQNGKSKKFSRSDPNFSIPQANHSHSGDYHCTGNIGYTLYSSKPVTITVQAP
Chain of human FcγRIIa (R&D Systems, 1330-CD) (human) (P12318 36-218 limits assumed): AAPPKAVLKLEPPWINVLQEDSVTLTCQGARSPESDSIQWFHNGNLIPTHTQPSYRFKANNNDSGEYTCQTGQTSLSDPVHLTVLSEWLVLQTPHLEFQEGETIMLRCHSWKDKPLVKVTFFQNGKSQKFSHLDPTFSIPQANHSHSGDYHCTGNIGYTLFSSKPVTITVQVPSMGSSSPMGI
Chain of CD20 endogenously expressed on Raji cells (P11836 whole entry): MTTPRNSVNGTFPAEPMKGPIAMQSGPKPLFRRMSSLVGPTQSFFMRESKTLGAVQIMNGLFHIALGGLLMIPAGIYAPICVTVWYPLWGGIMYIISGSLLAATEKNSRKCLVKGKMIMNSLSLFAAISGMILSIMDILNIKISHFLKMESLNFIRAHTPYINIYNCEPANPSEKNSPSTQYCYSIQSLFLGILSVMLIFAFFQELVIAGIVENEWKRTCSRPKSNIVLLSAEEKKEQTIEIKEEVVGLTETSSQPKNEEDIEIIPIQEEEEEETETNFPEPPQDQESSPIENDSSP
Chain of human FcγRIIIa (R&D Systems, 4325-FC) (human) (P08637 17-208 limits assumed): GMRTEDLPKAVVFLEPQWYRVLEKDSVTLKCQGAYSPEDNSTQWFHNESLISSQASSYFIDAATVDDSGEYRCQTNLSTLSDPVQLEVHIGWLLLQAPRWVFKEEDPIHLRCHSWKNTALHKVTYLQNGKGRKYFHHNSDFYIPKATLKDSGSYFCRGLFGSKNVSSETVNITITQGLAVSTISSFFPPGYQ

In assay [1], “anti-CD20 antibody Rituximab (generic version, IgG1 format)” displayed an ADCC, LDH release, maximum lysis of LAG-3 expressing Raji cells of 40%; an ADCC, LDH release, maximum lysis of PD-L1 expressing Raji cells of 40%; a CDC, LDH release, maximum lysis of PD-L1 expressing Raji cells of less than 60%.

In the case of “monoclonal IgG4 isotype mAb to an irrelevant target (antibody)”, the binding response at end of association (RU) in assay [2] turned out to be 9 RU; in assay [3], 3.1 RU; in [4], 4.3 RU; in assay [5], 15.1 RU; in assay [6], 8 RU; in [7], 8 RU. Moreover, the binding response at end of association (RU) in [8] came to 9 RU.

mouse IgG1 (Sigma, P5305) (antibody) showed a binding response at end of association (RU) in assay [7] of 7 RU.

For the substance “monoclonal IgG2 isotype mAb to an irrelevant target (antibody)”, the binding response at end of association (RU) in [2] came out at 0 RU; in assay [3] it was 1.9 RU; in assay [4], 9.7 RU; in [5], 7.4 RU; in assay [7] it was 9 RU.

For the substance “benchmark anti-mouse LAG-3 mAb C9B7W (2B Scientific, BE0174-50MG) (antibody)”, in [9], the negative logarithm of the EC50 (pEC50) was 7.57. For the same substance, in [10], the pEC50 is 7.10 and the fold poorer affinity (EC50) than the Fcabs worked out at 17 fold.
